Assay results: publication PMC3675161 (Biochemistry, 2013)

Biological target: the molecule itself
Assay: SEC

B1: cytoplasmic portion of selenoprotein S with its native selenocysteine (cSelS) (domain or fragment, human, UniProt Q9BQE4 52-189, looked up)
chain: SARLRALRQRQLDRAAAAVEPDVVVKRQEALAAARLKMQEELNAQVEKHKEKLKQLEEEKRRQKIEMWDSMQEGKSYKGNAKKPQEEDSPGPSTSSVLKRKSDRKPLRGGGYNPLSGEGGGACSWRPGRRGPSSGGUG
modifications: selenocysteine at position 188
stoichiometry N: 2
